Positions count from the first letter of the chain named. Numbers in names are those of the source. No end group written: not given here. *: point of attachment. NH(CH2)5NH2 = NCCCCCN*
T1: CsgG Y51A/F56A/N91R/K94Q/R97W-del(V105-I107) pore containing the C terminal strep tag (E. coli, UniProt P0AEA2 16-277)
T1 construct: not shown: C-terminal Strep tag
T1 chain: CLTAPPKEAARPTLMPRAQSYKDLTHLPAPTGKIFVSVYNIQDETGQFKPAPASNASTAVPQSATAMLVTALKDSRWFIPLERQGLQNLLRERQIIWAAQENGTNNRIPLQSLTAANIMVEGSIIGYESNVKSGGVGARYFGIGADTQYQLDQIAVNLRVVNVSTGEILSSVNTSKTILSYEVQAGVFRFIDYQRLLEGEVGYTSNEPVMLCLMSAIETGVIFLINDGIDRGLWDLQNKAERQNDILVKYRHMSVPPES

T2: CsgG Y51A/N55I/F56Q/N91R/K94Q/R97W-del(V105-I107) pore containing the C terminal strep tag (E. coli, UniProt P0AEA2 16-277)
T2 construct: also called Y51A/N551/F56Q/N91R/K94Q/R97W-del(V105-I107) (sic); not shown: C-terminal Strep tag
T2 chain: T1 chain with N55I, A56Q

T3: CsgG Y51A/N55V/F56Q/N91R/K94Q/R97W-del(V105-I107) pore containing the C terminal strep tag (E. coli, UniProt P0AEA2 16-277)
T3 construct: Oligomeric CsgG pore; also called Y51A/F56Q/N55V/N91R/K94Q/R97W-del(V105-I107); not shown: C-terminal Strep tag
T3 chain: T1 chain with N55V, A56Q

T4: CsgG Y51T/N55V/F56Q/N91R/K94Q/R97W-del(V105-I107) pore containing the C terminal strep tag (E. coli, UniProt P0AEA2 16-277)
T4 construct: not shown: C-terminal Strep tag
T4 chain: T1 chain with A51T, N55V, A56Q

T5: CsgG Y51S/N55V/F56Q/N91R/K94Q/R97W-del(V105-I107) pore containing the C terminal strep tag (E. coli, UniProt P0AEA2 16-277)
T5 construct: also called Y515/N55V/F56Q/N91R/K94Q/R97W-del(V105-I107) (sic); not shown: C-terminal Strep tag
T5 chain: T1 chain with A51S, N55V, A56Q

T6: CsgG Y51A/F56Q/N91R/K94Q/R97W-del(V105-I107) pore containing the C terminal strep tag (E. coli, UniProt P0AEA2 16-277)
T6 construct: Oligomeric CsgG pore; not shown: C-terminal Strep tag
T6 chain: T1 chain with A56Q

T7: CsgG Y51A/F56Q/K94Q/R97W/R192D-del(V105-I107), Strep-tagged (E. coli, UniProt P0AEA2 16-277)
T7 construct: Oligomeric CsgG pore; also called CsgG mutant with altered constriction; not shown: Strep tag
T7 chain: T1 chain with A56Q, R91N, R189D

B1: CsgF-N17S-(1-35) peptide (peptide)
peptide: GTMTFQFRNPNFGGNPSNGAFLLNSAQAQNSYKDP
notes: also called CsgF-N175-(1-35) (sic)
B2: CsgF-N17V-(1-35) peptide (peptide)
peptide: B1 peptide with S17V
B3: CsgF-(1-30) synthetic peptide (peptide)
peptide: GTMTFQFRNPNFGGNPNNGAFLLNSAQAQN
notes: Range counted on mature CsgF; also called mature peptide of CsgF 1:30
B4: CsgF 20:64 peptide with C-terminal 6xHis (from pNA100) (peptide)
peptide: GTMTFQFRNPNFGGNPNNGAFLLNSAQAQNSYKDPSYNDDFGIETHHHHHH
notes: first 45 residues of mature CsgF; also called CsgF fragment 1-64; CsgF 1-64
B5: CsgF truncated at position 35 by TEV protease cleavage, with ENLYFQ left at the cleavage site (peptide)
peptide: GTMTFQFRNPNFGGNPNNGAFLLNSAQAQNSYKDPENLYFQ
notes: also called CsgF truncated protein; No mutations at 17 position of CsgF
B6: CsgF N17S truncated at position 35 by TEV protease cleavage, with ENLYFQ left at the cleavage site (peptide)
peptide: B5 peptide with N17S
notes: also called N175 mutation in CsgF (sic, N17S)
B7: E. coli CsgG (wild-type) fused C-terminally to a Strep-II tag, outer membrane pore (other)
chain: CLTAPPKEAARPTLMPRAQSYKDLTHLPAPTGKIFVSVYNIQDETGQFKPYPASNFSTAVPQSATAMLVTALKDSRWFIPLERQGLQNLLNERKIIRAAQENGTVAINNRIPLQSLTAANIMVEGSIIGYESNVKSGGVGARYFGIGADTQYQLDQIAVNLRVVNVSTGEILSSVNTSKTILSYEVQAGVFRFIDYQRLLEGEVGYTSNEPVMLCLMSAIETGVIFLINDGIDRGLWDLQNKAERQNDILVKYRHMSVPPES
modifications: N-terminal lipidation of mature CsgG (Cys at the N-terminal position)
notes: Nonameric pore; dimers of nonamers also seen; also called CsgG-Strep; CsgG-strep; not shown: C-terminal Strep-II tag
B8: E. coli CsgF (mature) with C-terminal 6x histidine tag (other)
chain: GTMTFQFRNPNFGGNPNNGAFLLNSAQAQNSYKDPSYNDDFGIETPSALDNFTQAIQSQILGGLLSNINTGKPGRMVTNDYIVDIANRDGQLQLNVTDRKTGQTSTIQVSGLQNNSTDFHHHHHH
notes: also called CsgF-His; CsgF-his
B9: CsgF-(1-29) synthetic peptide (peptide)
peptide: GTMTFQFRNPNFGGNPNNGAFLLNSAQAQ
B10: Alexa 594-labelled synthetic CsgF peptide corresponding to the first 34 residues of mature CsgF (peptide)
peptide: GTMTFQFRNPNFGGNPNNGAFLLNSAQAQNSYKD-{NH(CH2)5NH2-Alexa594}
notes: also called CsgF N-terminal peptide; FCP
B11: Pro-CP1-Eco-(WT-Y51A/F56Q/D149N/E185N/E201N/E203N-StrepII(C)) CsgG pore (other)
chain: CLTAPPKEAARPTLMPRAQSYKDLTHLPAPTGKIFVSVYNIQDETGQFKPAPASNQSTAVPQSATAMLVTALKDSRWFIPLERQGLQNLLNERKIIRAAQENGTVAINNRIPLQSLTAANIMVEGSIIGYESNVKSGGVGARYFGIGANTQYQLDQIAVNLRVVNVSTGEILSSVNTSKTILSYNVQAGVFRFIDYQRLLNGNVGYTSNEPVMLCLMSAIETGVIFLINDGIDRGLWDLQNKAERQNDILVKYRHMSVPPESSAWSHPQFEK
notes: The entry already holds the mutations and the StrepII tag; also called Pro-CP1-Eco-(Mutant-StrepII(C)); monomeric pore

Experiments:
[1] = target: T1, CsgG …; assay: panel D; in vitro reconstitution; DNA translocation current recording
[2] = target: T2, CsgG …; assay: panel C; in vitro reconstitution; DNA translocation current recording
[3] = target: T3, CsgG …; assay: in vitro reconstitution; DNA translocation current recording
[4] = target: T4, CsgG …; assay: panel B; in vitro reconstitution; DNA translocation current recording
[5] = target: T5, CsgG …; assay: panel F; in vitro reconstitution; DNA translocation current recording
[6] = target: T3, CsgG …; assay: reconstitution with synthetic peptide, electrophysiology
[7] = target: B7; assay: co-expression, Strep affinity purification, anti-His dot blot
[8] = target: T6, CsgG …; assay: co-expression, purification, TEV cleavage; DNA translocation current recording
[9] = target: the molecule itself; assay: size exclusion chromatography (Superose 6); pore-pore dimer
[10] = target: B7; assay: cryo-EM of co-purified or in vitro reconstituted CsgG:CsgF particles
[11] = target: T7, CsgG …; assay: in vitro reconstitution (2:1 molar ratio), StrepTactin pull down, native PAGE with fluorescence
[12] = target: B7; assay: as above
[13] = target: the molecule itself; assay: size exclusion chromatography (S200 increase) of Strep- and ion-exchange-purified CsgG pore; pore-pore dimer

Question: Does B1 bind [1]?
Answer: binds

Question: Does B1 bind [2]?
Answer: binds

Question: Does B1 bind [3]?
Answer: binds

Question: Does B1 bind [4]?
Answer: binds

Question: Does B1 bind [5]?
Answer: binds

Question: Does B2 bind [3]?
Answer: binds

Question: Does B3 bind [6]?
Answer: binds

Question: Does B4 bind [7]?
Answer: binds

Question: Does B5 bind [8]?
Answer: binds

Question: Does B6 bind [8]?
Answer: binds

Question: Does B7 bind [9]?
Answer: binds

Question: Does B8 bind [10]?
Answer: binds

Question: Does B9 bind [6]?
Answer: binds

Question: Does B10 bind [11]?
Answer: binds

Question: Does B10 bind [12]?
Answer: binds

Question: Does B11 bind [13]?
Answer: binds

— patent US20220056517A1 (OXFORD NANOPORE TECHNOLOGIES, published 2022)
